The values that follow come from patent US20240075139A1.

B1: 3T0553 (antibody, V domains shown)
VH: QVQLVESGGGVVQPGRSLRLSCAASGFTFTTCAMHWVRQAPGKGLEWVSVMWYDGSREYYADSVKGRFTISRDNSKNTLYLEMQSLRAEDTAVYYCARGGDLLVEVDSTDYYGLDVWGQGTTVTVSS
VL: DIQMTQSPSAMSASVGDRVTITCRASQGISHSLAWFQQKPGKVPKRLIYSASTLQSGVPSRFSGSGSGTEFTLTISSLQPEDFATYYCLQHNRYPWTFGQGTKVEIK
B2: 3T0478 (antibody, V domains shown)
VH: VQLLQESGPGLVKPSETLSLTCTVSGGSISSYYWNWIRQSPGKGLEWMGYIYYTGSTNYNPSLKSRVTISVDLSKNQFSLKLRSVTAADTAVYYCARDKRYYDSSGYSHFDYWGQGILVTVSS
VL: QSVLTQPPSASGTPGQRVTIFCSGSSFNIGSNYVYWYQQLPGTAPKLLIYRNNERPSGVPDRFSGSKSGTSASLDISGLRSEDEADYSCAAWDGSLSGPVFGGGTKLTVL
B3: 3T0245 (antibody, V domains shown)
VH: EVQLVESGGDLVKPGGSLRLSCEASGFTFTNAWMNWVRQSPGKGLEWIGRVKSKSDGGAADYAAPVKGRFTISRDDSKNSVFLQMRSLKPEDTGVYYCATRVHYNGMDVWGRGTTVTVSS
VL: QSVLTQPPSVSGAPGQRVTISCAGSGSNIGAGYDVHWYQQLPGTAPKLLIYANHNRPSGVPDRFSGSKSGSSASLAITGLQAEDEADYYCQSYDSSLRDACVFGGGTKLTV
B4: 3T0611 (antibody, V domains shown)
VH: EVQLVESGGNLVQPGGSLRLSCAASGFTFRSYSMNWVRQAPGKGLEWVSYISSSASIIHYAESVQGRFTISRDNAKNSLFLQMNSLRAEDTAVYYCAGILDDYRDYGYDYWGQGTLVTVSS
VL: SYELTQPPSVSVSPGQTARITCSGDALPKQYAYWYQQRPGQAPVLVIYKDIERPSGIPERYSGSSSGAIVTLTISGAQAEDEADYYCQSSDNNGSYRVMFGGGTKLTVL
B5: 4T0243 (antibody, V domains shown)
VH: QVQLQESGPGLVKPSETLSLTCTVSGGSLSTYYWNWIRQPPGKGLEWIGYIYYSSLPKYSPTLKSRITISVDTSKNQFSLKLSSVTAADTAVYYCARAPRGYSSGKYNYYGLDVWSQGTTVTVSS
VL: SYELTQPPSVSVSPGHTATITCSGDALSKQFAYWYQQKPGQAPVLVISKDTERPSGIPGRFSGSSSGPTATLTISGVQAEDEADYYCQSADSSGGYYVFGSGTRVTVL
B6: 3T0253 (antibody)
heavy: EVQLVESGGGLVKPGRSLRISCAASGITFNKAWMNWVRLAPGKGLEWVGRIKSNGDGGKRDYAAPVTGRFTISRDDSKNTLYLQMNSLKTEDTAVYFRTTRHHRGMDVWGQGTTVTVSS
light: QSVLTQPPSVSGAPGQRVTISCTGSSSNIGAGYDVHWYQHLPGAAPKLLIYGDGSRPSGVPDRFSASKSGTSASLAITGLQAEDEADYYCQSYDSSLSDAVVFGGGTKLTVL
B7: 4T0444 (antibody, V domains shown)
VH: EVQLVVSGGGLVQPGGSLRLSCAASGFTLKSYDIHWVRQRPGEGLEWVAAIGAAGDTYFSGSVKGRFTISRENARNSLYLQMNSLGAGDTAIYYCARARFGDLALDYWGQGILVTVSS
VL: EIVLTQSPGTLSLSPGERATLSCRSSQSVSSNSLAWYQQKPGQAPRLLIYGASSRAAGIPDRFSGSGSGTDFTLTISRLQPEDFAVFFCHQYSSSPLTFGGGTKVEIK
B8: 1T0455 (antibody, V domains shown)
VH: EVQLVESGGGLVKPGESLRLSCAVSGLTFSNAWMNWVRQAPGKGLEWVGRIKSKSDGGAADYAAPVNARFTISRDDSKKTLYLQMNSLKTEDTGFYYCTTLYHSGQGTLVTVSS
VL: QSVLTQPPSVSGAPGQRVTISCTGSSSNIGAGYDVHWYQQLPGTAPKFVIYGNNNRPSGVPDRFSGSKSGTSASLAITGLQVEDEGDYYCQSYDSRLSDHVVFGGGTKLTVL
B9: 1T0227 (antibody, V domains shown)
VH: EVQLVESGGGLVKPGGSLRLSCAASGFTFRNAWMNWVRQAPGKGLEWVGRIKSRADGGPTDYAAPVKGRFTISRDDSKNTLYLQMNSLKSEDTAVYYCTTHVPDYNSAYYWVYWGQGTLVTVSS
VL: QSVLTQPPSVSGAPGQRVTISCTGSSSNIGAGYDVYWYQQLPGTAPKLIIYGNNNRPSGVPDRFSASKSGPSASLAITGLQAEDEADYYCQSYDIRLSDNYVFGTGTKVTVL
B10: 4T0764 (antibody, V domains shown)
VH: QVQLQESGPGLVEPSETLSLTCTVSGASISSLFWSWIRQPPGKGLEWIGYIHSDGSTNYNPFLKSRVTISIDTSQNQFSLRLTSVTAADTAVYFCARGLLGSQDSWGQGTLVTVSS
VL: QSALTQPASVSGSPGQSITISCTGTSSDVGGYNYVSWYQQYPGKAPKLVIYEVTNRPSGVSNRFSGSKSGNTASLTISGLRAEDEADYHCSSYRTRNTHVIFGGGTKLTVL
B11: 3T0673 (antibody, V domains shown)
VH: EVQLVESGGGRVKPGGSLRVSCAVSGITFTNAWMTWVRQAPGKGLEWLGRIKSRSDGGQSDLIAPVKGRFTISRDDSKNILYLQMNNLKTEDTGLYFCTTYYYDNGGSYSNPWGLGTLVTVSS
VL: QSVLTQPPSVSGAPGQRVTISCTGSYSNIGAGYDVLWYQQLPGTAPKLLIYGNNKRPSGVPDRFSGSKSGTSASLAITGLQAEDEADYYCQSYDSRLRDFGIFGGGTKLTVL
B12: 3T0338 (antibody, V domains shown)
VH: EVQLVESGGALVKPGGSLRLSCAASGFSFKTAWMNWVRQAPGKGLEWVGRIKSRADGGTSDYSASVKGRFTFSRDDSKNTLYLQMTSLKTEDTGMYYCTTLNLGGGFPGEWRSVWGQGTTVTVSS
VL: QSVLTQPPSVSGAPGQRVTISCTGSYSNIGSGYDVLWYQQLPGAAPKLLIYGNNNRPSGVPDRFSGSKSGTSASLAITELQAEDEGDYYCQSYDSRLRDSWVFGGGTRLTVL
B13: 5T0209 (antibody, V domains shown)
VH: EVQLVDSGGGLVKPGGSLRLSCAASGFTFSKAWMSWVRQAPGKGLEWVGRIKSRTDGGTTDYAAPVRGRFTISRDDSKNTLFLQMNSLKPEDTAIYYCATDYYESRGYWGQGTLVTVSS
VL: QSVLTQPPSVSGAPGQRVTISCTGSSSNIGAGYDVNWYQQIPGTAPKLLIYGNNKRPSGVPDRFSGSKSGTSVSLAITGLQAEDEADYYCQSYDSRLSDHWVFGGGTKLTVL
B14: 5T0451 (antibody, V domains shown)
VH: EVQLVESGGGLVKPGGSLRLSCAASGFTFTNAWMNWVRQAPGKGLEWIGRIKSKGDGGTADHAAPVRGRFIISRDDSKQMLYLQMTGLKSDDTAVYYCTRGPYDNFSGWRDYWGQGTLVTVSS
VL: QSVLTQPPSVSGAPGQRVTISCTGSGSNIGAGYDVQWYQQHPGTAPKVLIYGNNKRPSGVPDRFSGSKSGTSASLAITGLQAEDEAHYYCQSYDARLRDSWVFGGGTQLTVL
B15: 4T0452 (antibody, V domains shown)
VH: EVQLVESGGGLVKPGGSLRISCAASGFSFSNAWMNWVRQAPGKGLEWVGRIKSVSDGGPIHYAAPVKGRFTISRDDSKKMLYLQMNSLKVDDTAVYYCATEPRGYDWGWGQGTLVTVSS
VL: QSVLTQPPSVSGAPGQRVTISCTGSYSNIGAGYDVYWYQQFPGTAPKLLIYGNTNRPSGVPDRFSGSRSGTSASLAITGLQAEDEAHYYCQSYDSRLRDNWVLGGGTKLTVL
B16: 5T0278 (antibody, V domains shown)
VH: EVQLVESGGGLVKPGGSLRVSCAASGFPFTDAWMSWVRQAPGKGLEWVGRIKSNSDGGIPDYAAPVKGRFTISRDDSKRTLYLQMNSLKTEDTGYYYCYTLRFFGPGNSWGQGTLVTVSS
VL: QSVLTQPPSVSGAPGQRITISCTGSYSNIGAGYDVSWHQQLPGKAPKLLIYGNNNRPSGVPDRFSGSKSGTSASLTITGLQAEDEADYYCQSYDARLRDQVVFGGGTKLTVL
B17: 3T0650 (antibody, V domains shown)
VH: EVQLVQSGGGLVKPGGSLRLSCAASGFTFSNAWMNWVRQAPGKGLEWIGRVKSQTDRGTKDYAAPVKGRFSISRDDSKKMLYLQMNSLKIEDTGVYYCVATPHSWSVAWGQGTLVTVSS
VL: QSVLTQPPSVSGAPGQRVTISCTGSSSNIGAGYDVQWYQQFPGTAPKLLIYGNINRPSGVPDRFSGSKSGSSASLAITRLQAEDEADYYCQSYDSSLRDQWVFGGGTKLTVL
B18: 3T0202 (antibody, V domains shown)
VH: EVQLVESGGGLVQPGGSLRLSCAASGFKFRSYDMHWVRQRSGEGLEWVAAIGTAADTYYLGSVRGRFTISRENAKNSLYLQMDSLGAGDTAVYYCARAAFGAVFFDYWGQGTLVTVSS
VL: EIVLTQSPGTLSLSSGERATLSCRASQSISSSYLVWYQQKLGQAPRLLIYGASRRATGIPDRFSGSGSGTDFTLTISRLEPEDFAVYYCQQYGNSPITFGQGTRLEIK
B19: 5T0465 (antibody, V domains shown)
VH: QVQLVQSGAEVREPGASVRISCKASGYTFTSASIHWVRQAPGQGLEWMGIIDPVVGKTRSERKFNGRLIMTRDTPTSTVYMELNSLRSDDTAMYYCARSGYYPRGMDVWGQGTTVTVSS
VL: SYELTQPPSVSVSPGQTASITCSGDKLGDEYVSWYQQKPGQSPVLVISRDTRRSSGIPERFSGSNSGNTATLTISGTQAMDEADYYCQAWDSSTAVVFGGGTKLTVL
B20: 3T0331 (antibody, V domains shown)
VH: EVQLLESGGGLVQPGGSLRLSCEASGFPLRDYAMSWVRQAPGRGLQWVSTIGGNDNAANYADSVKGRFTVSRDNSKSTIYLQMNSLRAEDTALYFCAKSVRLSRPSPFDLWGQGSLVTVSS
VL: EIVLTQSPATLSLSPGERATLSCRASQSVSTYLAWYQHQPGQAPRLLIYEASNRATGIPARFSGSGSGTEFTLTISSLEPEDVAVYYCQQRASWPLTFGGGTKVEIK

For the assay, the target named is EBOV Mayinga (GenBank: NC_002549) (Zaire Ebolavirus (EBOV Mayinga)) (UniProt Q05320). Briefly: cell-based or functional assay.
UniProt Q05320, sequence (Q05320 33-676 limits assumed): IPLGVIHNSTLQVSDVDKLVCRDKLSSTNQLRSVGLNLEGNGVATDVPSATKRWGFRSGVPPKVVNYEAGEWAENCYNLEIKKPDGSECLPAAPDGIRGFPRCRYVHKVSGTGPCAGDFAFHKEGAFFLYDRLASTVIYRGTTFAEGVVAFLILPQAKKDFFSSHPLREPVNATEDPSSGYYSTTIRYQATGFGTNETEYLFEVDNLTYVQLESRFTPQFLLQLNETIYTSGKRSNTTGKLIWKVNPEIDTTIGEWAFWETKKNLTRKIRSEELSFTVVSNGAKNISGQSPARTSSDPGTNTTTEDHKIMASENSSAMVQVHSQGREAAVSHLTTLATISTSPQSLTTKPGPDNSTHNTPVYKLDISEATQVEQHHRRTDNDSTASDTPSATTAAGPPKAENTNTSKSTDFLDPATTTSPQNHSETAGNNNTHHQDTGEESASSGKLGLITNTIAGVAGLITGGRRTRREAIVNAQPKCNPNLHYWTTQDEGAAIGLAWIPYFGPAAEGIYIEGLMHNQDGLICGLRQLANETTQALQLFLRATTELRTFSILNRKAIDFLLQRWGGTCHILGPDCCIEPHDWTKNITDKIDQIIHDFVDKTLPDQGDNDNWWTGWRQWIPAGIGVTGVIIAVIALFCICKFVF
In the case of B1, the neutralization concentration (GMC, CPE reduction on Vero C1008 cells) was found to be 1.31 µg/mL.
As for B2, the neutralization concentration (GMC, CPE reduction on Vero C1008 cells) worked out at 0.78 µg/mL.
The molecule B3 returned a neutralization concentration (GMC, CPE reduction on Vero C1008 cells) of 0.63 µg/mL.
The same measure for B4: 0.78 µg/mL.
B5 yielded a neutralization concentration (GMC, CPE reduction on Vero C1008 cells) of 0.011 µg/mL.
Regarding B6, the neutralization concentration (GMC, CPE reduction on Vero C1008 cells) turned out to be 1.31 µg/mL.
In turn, B7 returned a neutralization concentration (GMC, CPE reduction on Vero C1008 cells) of 1.2 µg/mL.
Consider B8, for which the neutralization concentration (GMC, CPE reduction on Vero C1008 cells) was found to be 1.77 µg/mL.
The same measure for B9: 1.86 µg/mL; for B10: 0.88 µg/mL; for B11: 0.53 µg/mL.
B12 yielded a neutralization concentration (GMC, CPE reduction on Vero C1008 cells) of 1.06 µg/mL.
The same measure for B13: 1.77 µg/mL; for B14: 1.05 µg/mL; for B15: 0.88 µg/mL.
Molecule B16 yielded a neutralization concentration (GMC, CPE reduction on Vero C1008 cells) of 0.63 µg/mL.
Take B17: the neutralization concentration (GMC, CPE reduction on Vero C1008 cells) was found to be 0.74 µg/mL.
B18 had a neutralization concentration (GMC, CPE reduction on Vero C1008 cells) of 0.53 µg/mL.
As for B19, the figure is 0.66 µg/mL; as for B20, 0.011 µg/mL.
